Experimental data from patent publication US20220002427A1 (ENGMAB SARL, published 2022).
Changes are numbered by the printed parent chain. Values joined by “and” are separate entries in the source; they are usually repeats but may differ in a detail not shown here. Equal values may be shown once.

T1: human BCMA on cells (human, UniProt Q02223 1-184)
T1 construct: whole, on cells; also called huBCMA on HEK cells; HEK-huBCMA cells
T1 sequence (looked up): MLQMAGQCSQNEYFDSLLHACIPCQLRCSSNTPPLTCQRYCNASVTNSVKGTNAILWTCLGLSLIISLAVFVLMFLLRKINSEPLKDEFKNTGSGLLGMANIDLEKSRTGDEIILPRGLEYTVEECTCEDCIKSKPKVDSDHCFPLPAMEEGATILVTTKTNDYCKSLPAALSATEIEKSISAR

T2: recombinant human BCMA Fc(kih) (human, UniProt Q02223 4-53, site-specifically biotinylated at the C-terminal avi-tag ; Biotin on the avi-tag at the C-terminus of the Fc knob chain (tag and Fc left out).)
T2 construct: Knobs-into-holes heterodimer carrying one BCMA ectodomain; also called huBCMA Fc(kih); huBCMA; not shown: human IgG1 hinge-Fc knob chain with C-terminal avi-tag, and the unfused Fc hole chain
T2 chain: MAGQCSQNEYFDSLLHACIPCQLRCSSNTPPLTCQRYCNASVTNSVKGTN

B1: Mab 42 IgG (antibody, V domains shown)
VH: EVQLLESGGGLVQPGGSLRLSCAASGFTFSDNAMGWVRQAPGKGLEWVSAISGPGSSTYYADSVKGRFTISRDNSKNTLYLQMNSLRAEDTAVYYCAKVLGWFDYWGQGTLVTVSS
VL: EIVLTQSPGTLSLSPGERATLSCRASQSVSDEYLSWYQQKPGQAPRLLIHSASTRATGIPDRFSGSGSGTDFTLAISRLEPEDFAVYYCQQYGYPPDFTFGQGTKVEIK
notes: also called antibody 42; clone 42
B2: Mab 27 IgG (antibody, V domains shown)
VH: EVQLLESGGGLVQPGGSLRLSCAASGFTFSSAPMGWVRQAPGKGLEWVSAISYIGHTYYADSVKGRFTISRDNSKNTLYLQMNSLRAEDTAVYYCAKVLGWFDYWGQGTLVTVSS
VL: B1 VL with D31E, E32Y, S35A, H50E, S51H, A75T

Assays:
[1] = molecular target: T1, human BCMA on cells; assay: flow cytometry on HEK-huBCMA cells, PE anti-human Fc detection
[2] = molecular target: T3, recombinant cynomolgus BCMA Fc(kih) (cynomolgus, UniProt A0A2K5UD97 4-51); assay: ratio of SPR KD values (KD cynomolgus BCMA / KD human BCMA), reference human BCMA Fc(kih)
Protocol: (§1) The avidity of the interaction between anti-BCMA antibodies and recombinant BCMA Fc(kih) (human and cynomolgus) was determined. Biotinylated recombinant human and cynomolgus BCMA Fc(kih) were directly coupled on a SA chip following instructions (Biacore, Freiburg/Germany). The immobilization level ranged from 200 to 700 RU. […] The dissociation was monitored for 180 seconds. Bulk refractive index differences were corrected for by subtracting the response obtained on the reference flow cell. Here, the anti-BCMA antibodies were flown over an empty surface previously activated and deactivated as described in the standard amine coupling kit. Apparent kinetic constants were derived using the Biacore T200 Evaluation Software (vAA, Biacore AB, Uppsala/Sweden), to fit rate equations for 1:1 Langmuir binding by numerical integration, despite the bivalency of the interaction for comparison purposes. The affinity of the interaction between anti-BCMA antibodies and recombinant human BCMA Fc(kih) was also determined. Anti-human Fab antibody (GE Healthcare) was directly coupled on a CMS chip at pH 5.0 using the standard amine coupling kit (Biacore, Freiburg/Germany). The immobilization level was about 6500 RU. […] The dissociation was monitored for 120 seconds. Bulk refractive index differences were corrected for by subtracting the response obtained on reference flow cell. […] Kinetic constants were derived using the Biacore T100 Evaluation Software (vAA, Biacore AB, Uppsala/Sweden), to fit rate equations for 1:1 Langmuir binding by numerical integration (Table 4).
Based on the affinity values described in Example 2, the affinity of anti-BCMA antibodies to human BCMA vs. cynomolgus BCMA were compared and cyno/hu affinity ratio (gap) values were calculated (Table 5).

[3] = molecular target: T3, recombinant cynomolgus BCMA Fc(kih); assay: SPR (Biacore T200), IgG captured via anti-human Fab, BCMA Fc(kih) as analyte, 1:1 Langmuir fit
Protocol: as §1, with “Assessment of binding of anti-BCMA antibodies to recombinant BCMA by surface plasmon resonance (SPR) as follow. […] The avidity” for “The avidity”

[4] = molecular target: T2, recombinant human BCMA Fc(kih); assay: as above
Protocol: as §1, with “Assessment of binding of anti-BCMA antibodies to recombinant BCMA by surface plasmon resonance (SPR) as follow. […] The avidity” for “The avidity”

[5] = molecular target: T3, recombinant cynomolgus BCMA Fc(kih); assay: SPR one-shot kinetics (ProteOn XPR36), IgG captured from HEK293 supernatant via anti-human F(ab)2, BCMA as analyte
Protocol: (§2) All experiments were performed at 25° C. using PBST as running buffer (10 mM PBS, pH 7.4 and 0.005% (v/v) Tween®20). A ProteOn XPR36 biosensor equipped with GLC and GLM sensor chips and coupling reagents (10 mM sodium acetate, pH 4.5, sulfo-N-hydroxysuccinimide, 1-ethyl-3-(3-dimethylaminopropyl)-carbodiimide hydrochloride [EDC] and ethanolamine) was purchased from BioRad Inc. (Hercules, Calif.). Immobilizations were performed at 30 μl/min. on a GLM chip. pAb (goat) anti hu IgG, F(ab)2 specific Ab (Jackson) was coupled in vertical direction using a standard amine-coupling procedure: all six ligand channels were activated for 5 min with a mixture of EDC (200 mM) and sulfo-NHS (50 mM). Immediately after the surfaces were activated, pAb (goat) anti hu IgG, F(ab)2 specific antibody (50 μg/ml, 10 mM sodium acetate, pH 5) was injected across all six channels for 5 min. Finally, channels were blocked with a 5 min injection of 1 M ethanolamine-HCl (pH 8.5). […] One-shot kinetic measurements were performed by injection of a dilution series of human, cyno and mouse BCMA (50, 10, 2, 0.4, 0.08, 0 nM, 50 μl/min) for 3 min along the vertical channels. Dissociation was monitored for 5 min Kinetic data were analyzed in ProteOn Manager v. 2.1. Processing of the reaction spot data involved applying an interspot-reference and a double-reference step using an inline buffer blank (Myszka, 1999). The processed data from replicate one-shot injections were fit to a simple 1:1 Langmuir binding model without mass transport (O'Shannessy et al., 1993).

[6] = molecular target: T2, recombinant human BCMA Fc(kih); assay: as above
Protocol: as §2

[7] = molecular target: T4, murine BCMA extracellular domain, monomeric Fc-fusion (murine, UniProt O88472 1-49, site-specifically biotinylated at the C-terminal avi-tag); assay: as above
T4 construct: extracellular domain; also called muBCMA; mouse BCMA; not shown: hinge and Fc of human IgG1, knob chain; avi-tag; unfused human IgG1 Fc portion (hole chain)
Protocol: as §2

T3 sequence (A0A2K5UD97 entry or part of it): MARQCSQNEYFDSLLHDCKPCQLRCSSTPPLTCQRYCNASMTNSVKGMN
T4 sequence (O88472 whole entry, the tested form may be a part): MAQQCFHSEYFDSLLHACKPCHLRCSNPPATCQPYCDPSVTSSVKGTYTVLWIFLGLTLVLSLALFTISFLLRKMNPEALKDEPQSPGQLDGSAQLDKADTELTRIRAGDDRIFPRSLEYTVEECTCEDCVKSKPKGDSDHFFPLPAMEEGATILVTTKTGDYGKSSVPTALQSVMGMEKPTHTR

Binder	EC50 [1]	Affinity cyno/hu gap [2] [fold]	Kd [3] [nM]	koff [3] [s⁻¹]	kon [3] [M⁻¹ s⁻¹]	Kd [4] [nM]	koff [4] [s⁻¹]	kon [4] [M⁻¹ s⁻¹]	Kd [5] [nM]	Kd [6] [nM]	Kd [7] [nM]
B1	2.1 nM and 0.3 µg/mL	1.7	0.641	0.000453	707000	0.371	0.000298	803000	0.39	0.23	2.5
B2	10.6 nM and 1.52 µg/mL	12.7	2.11	0.000455	216000	0.165	5.93e-05	359000	0.1	0.00039	0.97
